# Results taken from patent US11566081B2, “Anti-acetaminophen antibodies and acetaminophen protein adducts” (BioVentures, LLC, priority 2014, dated 2023).
# Test system: acetaminophen protein adduct (BSA-APAP, 3-(cystein-S-yl)acetaminophen)
# Experiment: Competitive ELISA: relative inhibitory potency of APAP-protein adduct (BSA-APAP) versus free APAP
# Type: binding
# Conditions: inhibitors BSA-APAP vs APAP on a molar basis, clone supernatant final dilution 1:500
# Source text: Tissue culture supernatants from Rabbit monoclonal antibody clone 14-12 at a dilution of 1:250 was mixed with serial 4-fold dilutions of inhibitor (either BSA-APAP or APAP) such that the final dilution of RmAb was 1:500. The final concentrations of APAP were 80, 20, 5, 1.25, and 0.31 nmole per ELISA well. The final concentrations of APAP-BSA (quantified by HPLC-EC as APAP-Cys from the hydrolyzed protein) were 10, 2.5, 0.625, 0.156, and 0.04 pmole per ELISA well.
# Synthetically prepared acetaminophen-protein adduct (BSA-APAP) and free drug (APAP) were evaluated in competitive ELISA to determine their relative capacity, on a molar basis, to inhibit the binding of clone 14-12 rabbit monoclonal antibody to solid-phase immobilized acetaminophen protein adduct. […] Restated, clone 14-12 antibody has approximately 8000 times more affinity for acetaminophen protein adduct than it does for free APAP as measured in this ELISA context.
# The competitive ELISA was repeated with rabbit monoclonal antibody (RMAb) 14-12 and rabbit monoclonal antibody (RMAb) 22-8. […] After incubation and washing, bound RMAb was detected using Goat anti-Rabbit-IgG conjugated to HRP followed by the substrate TMB and color development was determined using an ELISA plate reader. […]
row,Molecule,times more affinity for acetaminophen protein adduct than for free APAP
1,"22-8: rabbit monoclonal antibody to acetaminophen-protein adduct, immunogen CP-2IT-APAP; light chain SEQ ID NO:15, heavy chain SEQ ID NO:16 (antibody) heavy: METGLRWLLLVAVLKGVQCQSLEESGGRLVTPGGSLTLTCTASGLTINNYYIIWVRQAPGKGLKYIGITYGGGFAYYASWAKGRFTISRTSTTVDLKMTSLTAEDTATYFCVRAAAGGAYDLWGQGTLVTVSSGQPKAPSVFPLAPCCGDTPSSTVTLGCLVKGYLPEPVTVTWNSGTLTNGVRTFPSVRQSSGLYSLSSVVSVTSSSQPVTCNVAHPATNTKVDKTVAPSTCSKPTCPPPELLGGPSVFIFPPKPKDTLMISRTPEVTCVVVDVSQDDPEVQFTWYINNEQVRTARPPLREQQFNSTIRVVSTLPIAHQDWLRGKEFKCKVHNKALPAPIEKTISKARGQPLEPKVYTMGPPREELSSRSVSLTCMINGFYPSDISVEWEKNGKAEDNYKTTPAVLDSDGSYFLYSKLSVPTSEWQRGDVFTCSVMHEALHNHYTQKSISRSPGK light: MDTRAPTQLLGLLLLWLPGATFAIEMTQTPSPVSAVVGGTVTINCQSSQNVFRKNYLSWFQQKPGQPPKLLISYIDSLTSGVPSRFSGSGAGTQFTLTISDVQCDDAATYYCLGVDGSANDATFGGGTEVVVEGDPVAPTVLIFPPAADQVATGTVTIVCVANKYFPDVTVTWEVDGTTQTTGIENSKTPQNSADCTYNLSSTLTLTSTQYNSHKEYTCKVTQGTTSVVQSFNRGDC",approximately 1250 times
2,"14-12: rabbit monoclonal antibody to acetaminophen-protein adduct, immunogen CP-2IT-APAP; light chain SEQ ID NO:13, heavy chain SEQ ID NO:14 (antibody) heavy: METGLRWLLLVAVLKGVQCQSVEESGGRLVTPGTPLTLTCTVSGFSINAYGINWVRQAPGKGLEYIGFSAPHTASYARWTKGRFTMSRTSTTVDLRMTSPTTEDTATYFCARYDRGGMVFNLWGQGTLVTVSSGQPKAPSVFPLAPCCGDTPSSTVTLGCLVKGYLPEPVTVTWNSGTLTNGVRTFPSVRQSSGLYSLSSVVSVTSSSQPVTCNVAHPATNTKVDKTVAPSTCSKPTCPPPELLGGPSVFIFPPKPKDTLMISRTPEVTCVVVDVSQDDPEVQFTWYINNEQVRTARPPLREQQFNSTIRVVSTLPIAHQDWLRGKEFKCKVHNKALPAPIEKTISKARGQPLEPKVYTMGPPREELSSRSVSLTCMINGFYPSDISVEWEKNGKAEDNYKTTPAVLDSDGSYFLYSKLSVPTSEWQRGDVFTCSVMHEALHNHYTQKSISRSPGK light: MDTRAPTQLLGLLLLWLPGATFALVMTQTPSSVPAAVGGTVTIGCQASQSISRQVSWYQQKPGQPPKLLIYRASTLASGVSSRFKGSGSGTEFTLTISGVQCDDAATYYCLGIVTDRIADGLAFGGGTEVVVKGDPVAPTVLIFPPAADQVATGTVTIVCVANKYFPDVTVTWEVDGTTQTTGIENSKTPQNSADCTYNLSSTLTLTSTQYNSHKEYTCKVTQGTTSVVQSFNRGDC",approximately 8000 times
